Results taken from article PMC9352680, “A comprehensive thermodynamic model for RNA binding by the Saccharomyces cerevisiae Pumilio protein PUF4”.

T1: PUF4 RNA-binding domain (Saccharomyces cerevisiae, UniProt P25339 537-888)
T1 sequence: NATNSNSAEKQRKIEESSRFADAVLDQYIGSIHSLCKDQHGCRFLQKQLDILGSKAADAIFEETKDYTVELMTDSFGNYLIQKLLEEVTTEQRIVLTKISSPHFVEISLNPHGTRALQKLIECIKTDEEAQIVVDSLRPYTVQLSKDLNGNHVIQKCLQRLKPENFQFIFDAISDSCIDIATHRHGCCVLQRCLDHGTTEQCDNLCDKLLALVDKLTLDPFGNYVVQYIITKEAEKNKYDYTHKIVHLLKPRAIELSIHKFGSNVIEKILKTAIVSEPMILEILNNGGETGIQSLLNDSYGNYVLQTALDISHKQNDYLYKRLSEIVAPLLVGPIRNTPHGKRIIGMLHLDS


Molecular target: T1, PUF4 RNA-binding domain
Test: Mg; RNA-MaP; 20 mM Na-HEPES pH 7.4, 30 mM KOAc, 0.75 mM MgCl2, 0.1% Tween-20, 5% glycerol, 0.1 mg/mL BSA, 2 mM DTT; 25 C; 0.0125-409.6 nM protein
Conditions: tags: N-His6-TEV cleaved; C-SNAP kept, Cy3B-labelled; label: tethered on chip by stalled RNA polymerase

Binder | Kd
UCUCUUCUUAUAUAUACCUCUCUU (ssRNA) [Id_ii_S1_P3E.3_K3.2_C3.2_H3.2_A3.1_F3.1_T3.2_[T9C]_[A10C]] | 1300 nM
UCUCUUCCUAUAUAUAUGUCUCUU (ssRNA) [Id_ii_S1_P3E.3_K3.2_C3.2_[T-1C]_H3.2_A3.1_F3.1_T3.2_[A10G]] | 770 nM
UCUCUUCCUAUAUAUAGCUCUCUU (ssRNA) [Id_ii_S1_P3E.3_K3.2_C3.2_[T-1C]_H3.2_A3.1_F3.1_T3.2_[T9G]_[A10C]] | 980 nM
UCUCUUCUUAUAUAUACGUCUCUU (ssRNA) [Id_ii_S1_P3E.3_K3.2_C3.2_H3.2_A3.1_F3.1_T3.2_[T9C]_[A10G]] | 1260 nM
UCUCUUCGUAUAUAUAUAUCUCUU (ssRNA) [Id_ii_S1_P3E.3_K3.2_C3.2_[T-1G]_H3.2_A3.1_F3.1_T3.2] | 488 nM
UCUCUUCCUAUAUAUACAUCUCUU (ssRNA) [Id_ii_S1_P3E.3_K3.2_C3.2_[T-1C]_H3.2_A3.1_F3.1_T3.2_[T9C]] | 1260 nM
UCUCUUCCUAUAUAUAUCUCUCUU (ssRNA) [Id_ii_S1_P3E.3_K3.2_C3.2_[T-1C]_H3.2_A3.1_F3.1_T3.2_[A10C]] | 1000 nM
UCUCUUCGUAUAUAUAAAUCUCUU (ssRNA) [Id_ii_S1_P3E.3_K3.2_C3.2_[T-1G]_H3.2_A3.1_F3.1_T3.2_[T9A]] | 653 nM
UCUCUUUAUACAUUAUCUCUU (ssRNA) [Ib_S1_P4E.1_K4.1_C4.1_H4.1_[G2A]_A4.1_[T5C]_F4.1_T4.1] | 23.8 nM
UCUCUUCAUAUAUAUAGUUCUCUU (ssRNA) [Id_ii_S1_P3E.3_K3.2_C3.2_[T-1A]_H3.2_A3.1_F3.1_T3.2_[T9G]_[A10T]] | 413 nM
UCUCUUCGUAUAUAUAACUCUCUU (ssRNA) [Id_ii_S1_P3E.3_K3.2_C3.2_[T-1G]_H3.2_A3.1_F3.1_T3.2_[T9A]_[A10C]] | 629 nM
UCUCUUCUUAUAUAUAUGUCUCUU (ssRNA) [Id_ii_S1_P3E.3_K3.2_C3.2_H3.2_A3.1_F3.1_T3.2_[A10G]] | 499 nM
UCUCUUCAUAUAUAUAGCUCUCUU (ssRNA) [Id_ii_S1_P3E.3_K3.2_C3.2_[T-1A]_H3.2_A3.1_F3.1_T3.2_[T9G]_[A10C]] | 512 nM
UCUCUUAUUAUAUAUACCUCUCUU (ssRNA) [Id_ii_S1_P3E.3_K3.2_C3.2_[C-2A]_H3.2_A3.1_F3.1_T3.2_[T9C]_[A10C]] | 2290 nM
UCUCUUCAUAUAUAUAUUUCUCUU (ssRNA) [Id_ii_S1_P3E.3_K3.2_C3.2_[T-1A]_H3.2_A3.1_F3.1_T3.2_[A10T]] | 515 nM
UCUCUUUUUACAUUAUCUCUU (ssRNA) [Ib_S1_P4E.1_K4.1_C4.1_H4.1_[G2T]_A4.1_[T5C]_F4.1_T4.1] | 914 nM
UCUCUUAUUAUAUAUAUCUCUCUU (ssRNA) [Id_ii_S1_P3E.3_K3.2_C3.2_[C-2A]_H3.2_A3.1_F3.1_T3.2_[A10C]] | 993 nM
UCUCUUCCUAUAUAUACCUCUCUU (ssRNA) [Id_ii_S1_P3E.3_K3.2_C3.2_[T-1C]_H3.2_A3.1_F3.1_T3.2_[T9C]_[A10C]] | 969 nM
UCUCUUAUUAUAUAUACGUCUCUU (ssRNA) [Id_ii_S1_P3E.3_K3.2_C3.2_[C-2A]_H3.2_A3.1_F3.1_T3.2_[T9C]_[A10G]] | 1860 nM
UCUCUUCCUAUAUAUAACUCUCUU (ssRNA) [Id_ii_S1_P3E.3_K3.2_C3.2_[T-1C]_H3.2_A3.1_F3.1_T3.2_[T9A]_[A10C]] | 1070 nM
UCUCUUCCUAUAUAUACGUCUCUU (ssRNA) [Id_ii_S1_P3E.3_K3.2_C3.2_[T-1C]_H3.2_A3.1_F3.1_T3.2_[T9C]_[A10G]] | 1950 nM
UCUCUUCUUAUAUAUAGUUCUCUU (ssRNA) [Id_ii_S1_P3E.3_K3.2_C3.2_H3.2_A3.1_F3.1_T3.2_[T9G]_[A10T]] | 109 nM
UCUCUUCUUAUAUAUACUUCUCUU (ssRNA) [Id_ii_S1_P3E.3_K3.2_C3.2_H3.2_A3.1_F3.1_T3.2_[T9C]_[A10T]] | 634 nM
UCUCUUCAUAUAUAUACAUCUCUU (ssRNA) [Id_ii_S1_P3E.3_K3.2_C3.2_[T-1A]_H3.2_A3.1_F3.1_T3.2_[T9C]] | 1300 nM
UCUCUUAUUAUAUAUACAUCUCUU (ssRNA) [Id_ii_S1_P3E.3_K3.2_C3.2_[C-2A]_H3.2_A3.1_F3.1_T3.2_[T9C]] | 599 nM

Binder | Kd
UCUCUUCGUAUAUAUAAUUCUCUU (ssRNA) [Id_ii_S1_P3E.3_K3.2_C3.2_[T-1G]_H3.2_A3.1_F3.1_T3.2_[T9A]_[A10T]] | 675 nM
UCUCUUCGUAUAUAUACCUCUCUU (ssRNA) [Id_ii_S1_P3E.3_K3.2_C3.2_[T-1G]_H3.2_A3.1_F3.1_T3.2_[T9C]_[A10C]] | 1710 nM
UCUCUUCAUAUAUAUAUAUCUCUU (ssRNA) [Id_ii_S1_P3E.3_K3.2_C3.2_[T-1A]_H3.2_A3.1_F3.1_T3.2] | 624 nM
UCUCUUCGUAUAUAUAGCUCUCUU (ssRNA) [Id_ii_S1_P3E.3_K3.2_C3.2_[T-1G]_H3.2_A3.1_F3.1_T3.2_[T9G]_[A10C]] | 419 nM
UCUCUUCUUAUAUAUAGCUCUCUU (ssRNA) [Id_ii_S1_P3E.3_K3.2_C3.2_H3.2_A3.1_F3.1_T3.2_[T9G]_[A10C]] | 77.5 nM
UCUCUUCUUAUAUAUAUCUCUCUU (ssRNA) [Id_ii_S1_P3E.3_K3.2_C3.2_H3.2_A3.1_F3.1_T3.2_[A10C]] | 600 nM
UCUCUUCUUAUAUAUAAAUCUCUU (ssRNA) [Id_ii_S1_P3E.3_K3.2_C3.2_H3.2_A3.1_F3.1_T3.2_[T9A]] | 1180 nM
UCUCUUCAUAUAUAUAUCUCUCUU (ssRNA) [Id_ii_S1_P3E.3_K3.2_C3.2_[T-1A]_H3.2_A3.1_F3.1_T3.2_[A10C]] | 717 nM
UCUCUUCAUAUAUAUACGUCUCUU (ssRNA) [Id_ii_S1_P3E.3_K3.2_C3.2_[T-1A]_H3.2_A3.1_F3.1_T3.2_[T9C]_[A10G]] | 1120 nM
UCUCUUCAUAUAUAUAGGUCUCUU (ssRNA) [Id_ii_S1_P3E.3_K3.2_C3.2_[T-1A]_H3.2_A3.1_F3.1_T3.2_[T9G]_[A10G]] | 804 nM
UCUCUUCCUAUAUAUAGUUCUCUU (ssRNA) [Id_ii_S1_P3E.3_K3.2_C3.2_[T-1C]_H3.2_A3.1_F3.1_T3.2_[T9G]_[A10T]] | 787 nM
UCUCUUAUUAUAUAUAUAUCUCUU (ssRNA) [Id_ii_S1_P3E.3_K3.2_C3.2_[C-2A]_H3.2_A3.1_F3.1_T3.2] | 424 nM
UCUCUUUUUAUCUUAUCUCUU (ssRNA) [Ib_S1_P4E.1_K4.1_C4.1_H4.1_[G2T]_A4.1_[A6C]_F4.1_T4.1] | > 2300 nM
UCUCUUAUUAUAUAUAUUUCUCUU (ssRNA) [Id_ii_S1_P3E.3_K3.2_C3.2_[C-2A]_H3.2_A3.1_F3.1_T3.2_[A10T]] | 383 nM
UCUCUUCUUAUAUAUACAUCUCUU (ssRNA) [Id_ii_S1_P3E.3_K3.2_C3.2_H3.2_A3.1_F3.1_T3.2_[T9C]] | 907 nM
UCUCUUCCUAUAUAUAUUUCUCUU (ssRNA) [Id_ii_S1_P3E.3_K3.2_C3.2_[T-1C]_H3.2_A3.1_F3.1_T3.2_[A10T]] | 673 nM
UCUCUUUAUAAAUUAUCUCUU (ssRNA) [Ib_S1_P4E.1_K4.1_C4.1_H4.1_[G2A]_A4.1_[T5A]_F4.1_T4.1] | 128 nM
UCUCUUAUUAUAUAUAAUUCUCUU (ssRNA) [Id_ii_S1_P3E.3_K3.2_C3.2_[C-2A]_H3.2_A3.1_F3.1_T3.2_[T9A]_[A10T]] | 814 nM
UCUCUUCAUAUAUAUACUUCUCUU (ssRNA) [Id_ii_S1_P3E.3_K3.2_C3.2_[T-1A]_H3.2_A3.1_F3.1_T3.2_[T9C]_[A10T]] | 618 nM
UCUCUUCCUAUAUAUAAGUCUCUU (ssRNA) [Id_ii_S1_P3E.3_K3.2_C3.2_[T-1C]_H3.2_A3.1_F3.1_T3.2_[T9A]_[A10G]] | 1540 nM
UCUCUUAUUAUAUAUACUUCUCUU (ssRNA) [Id_ii_S1_P3E.3_K3.2_C3.2_[C-2A]_H3.2_A3.1_F3.1_T3.2_[T9C]_[A10T]] | 528 nM
UCUCUUCAUAUAUAUAAUUCUCUU (ssRNA) [Id_ii_S1_P3E.3_K3.2_C3.2_[T-1A]_H3.2_A3.1_F3.1_T3.2_[T9A]_[A10T]] | 669 nM
UCUCUUUCUACAUUAUCUCUU (ssRNA) [Ib_S1_P4E.1_K4.1_C4.1_H4.1_[G2C]_A4.1_[T5C]_F4.1_T4.1] | 1450 nM
UCUCUUCCUAUAUAUAUAUCUCUU (ssRNA) [Id_ii_S1_P3E.3_K3.2_C3.2_[T-1C]_H3.2_A3.1_F3.1_T3.2] | 578 nM
